pKd: −log10 of the molar value.
How the values were obtained:
[1] = molecular target: Ac-Ubc9K65 (Ubc9 acetylated at K65) (UniProt P63279); test: ITC; 2 μl additions of peptide to 200 μl of WT Ubc9 or Ac-Ubc9K65; 25 °C; pH 8.0, 20 mM potassium phosphate, 100 mM NaCl; iTC200; fitted assuming 1:1 binding stoichiometry
Ubc9 (wild type) = Ubc9 (wild type) (UniProt P63279); test: as above
Sequence of Ubc9 (wild type) (P63279 whole entry): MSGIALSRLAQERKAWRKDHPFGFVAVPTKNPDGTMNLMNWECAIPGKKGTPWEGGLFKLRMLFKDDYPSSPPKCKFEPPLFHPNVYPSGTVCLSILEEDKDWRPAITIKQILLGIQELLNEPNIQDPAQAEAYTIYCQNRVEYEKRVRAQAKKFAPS

Sequence of Ac-Ubc9K65 (Ubc9 acetylated at K65) (P63279 whole entry): as above

| Substance | pKd [1] | pKd (Ubc9 (wild type)) |
| --- | --- | --- |
| Calpain2 NDSM peptide | 4.10 | 4.25 |
| Elk1 NDSM peptide (from UniProt P19419 242-261) | 3.99 | 4.15 |
| RanGAP1 peptide (consensus sumoylation motif) (from UniProt P46060 517-536) | 4.89 | 4.89 |

— article PMC5727262, “Molecular mechanism of K65 acetylation-induced attenuation of Ubc9 and the NDSM interaction” (Scientific Reports, 2017)
